Assays:
[1] = molecular target: the molecule itself; test: cryo-EM structure
[2] = molecular target: the molecule itself; test: negative-staining EM

B1: β-arrestin 2 (βarr2), wild-type, full-length (natural protein, UniProt P32120 1-420, looked up)
chain: MGEKPGTRVFKKSSPNCKLTVYLGKRDFVDHLDKVDPVDGVVLVDPDYLKDRKVFVTLTCAFRYGREDLDVLGLSFRKDLFIANYQAFPPTPNPPRPPTRLQERLLRKLGQHAHPFFFTIPQNLPCSVTLQPGPEDTGKACGVDFEIRAFCAKSLEEKSHKRNSVRLVIRKVQFAPEKPGPQPSAETTRHFLMSDRSLHLEASLDKELYYHGEPLNVNVHVTNNSTKTVKKIKVSVRQYADICLFSTAQYKCPVAQVEQDDQVSPSSTFCKVYTITPLLSNNREKRGLALDGKLKHEDTNLASSTIVKEGANKEVLGILVSYRVKVKLVVSRGGDVSVELPFVLMHPKPHDHIALPRPQSAATHPPTLLPSAVPETDAPVDTNLIEFETNYATDDDIVFEDFARLRLKGLKDEDYDDQFC
- stoichiometry N [1]: 2
- stoichiometry N [2]: 3

Source: article PMC7615931 (Science (New York, N.Y.), 2024)
